Results on 4 molecules are retold here after patent US20170097353A1 (University of California, published 2017).

Sequences and labels used below:
B1: P100SP-P4-2 on phage (PEG100, specific attachment, PEG4 linker, ligand 2; on M13 phage wrapped with K14-Cys) (peptide)
peptide: {Mal‑PEG100‑alkyne (triazole)-PEG4 linker}-SECVEVFQNSCDW-NH2
modifications: not fully specified; cysteine pairing not given here
notes: Multivalent display on M13 phage wrapped with K14-Cys
B2: P100SP-2 on phage (PEG100, specific attachment to ligand 2; bioconjugated to M13 phage wrapped with K14-Cys) (peptide)
peptide: SECVEVFQNSCDW-NH2
modifications: not fully specified (N-terminus); cysteine pairing not given here; also: Mal-PEG100-alkyne clicked (triazole) to azide at N-terminus
notes: as for B1
B3: P100NSP-2 on phage (PEG100, non-specific attachment to ligand 2; bioconjugated to M13 phage wrapped with K14-Cys) (peptide)
peptide: {pentynoic acid-Butanoyl(4-N3)}-SECVEVFQNSCDW-NH2
modifications: not fully specified; cysteine pairing not given here; also: Mal-PEG100 coupled non-specifically (N-terminal or side-chain carboxylate)
notes: Multivalent display on M13 phage wrapped with K14-Cys; also called PEGylated ligand 2; peptide-2
B4: P100NSP-P4-2 on phage (PEG100, non-specific attachment, PEG4 linker, ligand 2; on M13 phage wrapped with K14-Cys) (peptide)
peptide: {pentynoic acid-15‑azido‑4,7,10,13‑tetraoxapentadecanoic acid}-SECVEVFQNSCDW-NH2
modifications: not fully specified; cysteine pairing not given here; also: pentynoic acid clicked to azide (triazole), Mal-PEG100-NH2 HBTU-coupled non-specifically
notes: as for B1

Ends that are not written are not given here. * marks the point of attachment. Butanoyl(4-N3) = [N-]=[N+]=NCCCC(=O)*

T1 sequence (Q04609 whole entry): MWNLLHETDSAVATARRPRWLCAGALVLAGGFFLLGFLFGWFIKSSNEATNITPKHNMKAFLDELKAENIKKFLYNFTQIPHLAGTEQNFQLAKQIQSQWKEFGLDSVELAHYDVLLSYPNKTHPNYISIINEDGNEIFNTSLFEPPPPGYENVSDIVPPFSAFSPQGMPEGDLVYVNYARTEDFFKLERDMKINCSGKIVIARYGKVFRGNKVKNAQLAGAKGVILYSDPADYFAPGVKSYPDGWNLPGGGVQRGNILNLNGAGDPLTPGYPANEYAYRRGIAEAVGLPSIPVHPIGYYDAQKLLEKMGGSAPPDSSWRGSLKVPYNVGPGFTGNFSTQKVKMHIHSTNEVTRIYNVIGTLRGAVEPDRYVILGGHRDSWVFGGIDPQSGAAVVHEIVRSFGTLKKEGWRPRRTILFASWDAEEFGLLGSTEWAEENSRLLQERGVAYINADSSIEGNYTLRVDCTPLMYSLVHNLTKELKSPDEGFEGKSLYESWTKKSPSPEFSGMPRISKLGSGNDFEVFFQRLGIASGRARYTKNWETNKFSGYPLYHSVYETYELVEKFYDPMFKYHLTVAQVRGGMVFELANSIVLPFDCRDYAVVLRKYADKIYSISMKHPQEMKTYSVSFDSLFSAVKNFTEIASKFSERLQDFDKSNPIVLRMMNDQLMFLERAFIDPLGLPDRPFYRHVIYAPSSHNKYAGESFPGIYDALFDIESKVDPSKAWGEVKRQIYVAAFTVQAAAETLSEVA

The test addresses T1, Prostate Specific Membrane Antigen (PSMA) on the surface of LNCaP / LNCaP CSS prostate cancer cells (human, UniProt Q04609 1-750, glycoprotein).
T1 construct: whole, on cells; Endogenous PSMA on LNCaP cells (derived from lymph node adenocarcinoma of the human prostate); Cells were glutaraldehyde-fixed on Maxisorp plates in the cell-based phage ELISA, or in suspension in the sandwich ELISA; also called cell surface PSMA
The test can be described thus: cell-based phage ELISA on LNCaP cells (FIG. 5A).
For B1, the binding result is “binds”.
Consider B2, for which the binding result is recorded as “binds”.
The entry for B3 is “binds”; for B4 it is “binds”.
